Results as given in US20210380703A1.

target: human Fc (human); assay: ELISA, negative control

Row | optical density [OD] | Binder
1 | 0.246 | 376_E09 (antibody, V domains shown) VH: EVQLLESGGGLVQPGGSLRLSCAASGFTFDSYSMNWVRQAPGKGLEWVSGINYNSGYKSYADSVKGRFTISRDNSKNTLYLQMNSLRAEDTAVYYCARSATWHDTHLDYWGQGTLVTVSS VL: DIQMTQSPSSLSASVGDRVTITCRASQSILTYLNWYQQKPGKAPKLLIYAATSRHSGVPSRFSGSGSGTDFTLTISSLQPEDFATYYCQQSYDTPLTFGGGTKVEIK
2 | 0.314 | 365_E03 (antibody, V domains shown) VH: EVQLLESGGGLVQPGGSLRLSCAASGFTFDSYSMNWVRQAPGKGLEWVSNINYNGGYTGYADSVKGRFTISRDNSKNTLYLQMNSLRAEDTAVYYCARSATWHDTHLDYWGQGTLVTVSS VL: DIQMTQSPSSLSASVGDRVTITCRASQSILTYVNWYQQKPGKAPKLLIYAATSLHSGVPSRFSGSGSGTDFTLTISSLQPEDFATYYCQQSDERPLTFGGGTKVEIK
3 | 0.271 | 367_E10 (antibody, V domains shown) VH: EVQLLESGGGLVQPGGSLRLSCAASGFTFSSYGMHWVRQAPGKGLEWVSSINYNGGYTGYADSVKGRFTISRDNSKNTLYLQMNSLRAEDTAVYYCARAATWHDTHLDYWGQGTLVTVSS VL: DIQMTQSPSSLSASVGDRVTITCRASQSILSYVNWYQQKPGKAPKLLIYAATSRASGVPSRFSGSGSGTDFTLTISSLQPEDFATYYCQQSYELPLTFGGGTKVEIK
4 | 0.437 | 372_H03 (antibody, V domains shown) VH: EVQLLESGGGLVQPGGSLRLSCAASGFTFDSYGMNWVRQAPGKGLEWVSNINYNGGYKSYADSVKGRFTISRDNSKNTLYLQMNSLRAEDTAVYYCARSATWHDTHLDYWGQGTLVTVSS VL: DIQMTQSPSSLSASVGDRVTITCRASQSIITYVNWYQQKPGKAPKLLIYAATSLASGVPSRFSGSGSGTDFTLTISSLQPEDFATYYCQQSYNLPLTFGGGTKVEIK
5 | 0.165 | 373_E08 (antibody, V domains shown) VH: EVQLLESGGGLVQPGGSLRLSCAASGFTFDSYGMNWVRQAPGKGLEWVSGINYNSGYTSYADSVKGRFTISRDNSKNTLYLQMNSLRAEDTAVYYCARSATWHDTHLDYWGQGTLVTVSS VL: DIQMTQSPSSLSASVGDRVTITCRASQSIVSYVNWYQQKPGKAPKLLIYAVTSRASGVPSRFSGSGSGTDFTLTISSLQPEDFATYYCQQSYESPLTFGGGTKVEIK
6 | 0.17 | 375_B10 (antibody, V domains shown) VH: EVQLLESGGGLVQPGGSLRLSCAASGFTFDSYSMNWVRQAPGKGLEWVSGINYNSGYTSYADSVKGRFTISRDNSKNTLYLQMNSLRAEDTAVYYCARSATWHDTHLDYWGQGTLVTVSS VL: DIQMTQSPSSLSASVGDRVTITCRASQSILSYLNWYQQKPGKAPKLLIYAATSRHSGVPSRFSGSGSGTDFTLTISSLQPEDFATYYCQQSYDLPLTFGGGTKVEIK
7 | 0.384 | 366_E03 (antibody, V domains shown) VH: EVQLLESGGGLVQPGGSLRLSCAASGFTFDSYGMNWVRQAPGKGLEWVSNINYNGGYKSYADSVKGRFTISRDNSKNTLYLQMNSLRAEDTAVYYCARSATWHDTHLDYWGQGTLVTVSS VL: DIQMTQSPSSLSASVGDRVTITCRASQSILTYLNWYQQKPGKAPKLVIYAATSRHSGVPSRFSGSGSGTDFTLTISSLQPEDFATYYCQQSYSNPLTFGGGTKVEIK
8 | 0.169 | 374_E04 (antibody, V domains shown) VH: EVQLLESGGGLVQPGGSLRLSCAASGFTFSSYSMNWVRQAPGKGLEWVSGINYNSGYKSYADSVKGRFTISRDNSKNTLYLQMNSLRAEDTAVYYCARSATWHDTHLDYWGQGTLVTVSS VL: DIQMTQSPSSLSASVGDRVTITCRASQSILSYLNWYQQKPGKAPKLLIYAVTSRASGVPSRFSGSGSGTDFTLTISSLQPEDFATYYCQQSYNNPLTFGGGTKVEIK
9 | 0.246 | 371_B05 (antibody, V domains shown) VH: EVQLLESGGGLVQPGGSLRLSCAASGFTFSSYSMNWVRQAPGKGLEWVSGINYNSGYTSYADSVKGRFTISRDNSKNTLYLQMNSLRAEDTAVYYCARSATWHDTHLDYWGQGTLVTVSS VL: DIQMTQSPSSLSASVGDRVTITCRASQSILTYLNWYQQKPGKAPKLVIYAATSLASGVPSRFSGSGSGTDFTLTISSLQPEDFATYYCQQSDETPLTFGGGTKVEIK
10 | 0.17 | 374_B11 (antibody, V domains shown) VH: EVQLLESGGGLVQPGGSLRLSCAASGFTFSSYSMNWVRQAPGKGLEWVSGINYNSGYKSYADSVKGRFTISRDNSKNTLYLQMNSLRAEDTAVYYCARSATWHDTHLDYWGQGTLVTVSS VL: DIQMTQSPSSLSASVGDRVTITCRASQSILTYVNWYQQKPGKAPKLVIYAATSRASGVPSRFSGSGSGTDFTLTISSLQPEDFATYYCQQSYDLPLTFGGGTKVEIK
11 | 0.274 | 376_H08 (antibody, V domains shown) VH: EVQLLESGGGLVQPGGSLRLSCAASGFTFDSYGMNWVRQAPGKGLEWVSNINYNGGYKGYADSVKGRFTISRDNSKNTLYLQMNSLRAEDTAVYYCARSATWHDTHLDYWGQGTLVTVSS VL: DIQMTQSPSSLSASVGDRVTITCRASQSILTYLNWYQQKPGKAPKLLIYAATSRHSGVPSRFSGSGSGTDFTLTISSLQPEDFATYYCQQSDSLPLTFGGGTKVEIK
12 | 0.285 | 376_G11 (antibody, V domains shown) VH: EVQLLESGGGLVQPGGSLRLSCAASGFTFSSYSMNWVRQAPGKGLEWVSGINYNSGYKSYADSVKGRFTISRDNSKNTLYLQMNSLRAEDTAVYYCARSATWHDTHLDYWGQGTLVTVSS VL: DIQMTQSPSSLSASVGDRVTITCRASQSIVTYVNWYQQKPGKAPKLVIYAATSLASGVPSRFSGSGSGTDFTLTISSLQPEDFATYYCQQSYNLPLTFGGGTKVEIK
13 | 0.33 | 367_G08 (antibody, V domains shown) VH: EVQLLESGGGLVQPGGSLRLSCAASGFTFDSYGMNWVRQAPGKGLEWVSNINYNGGYKGYADSVKGRFTISRDNSKNTLYLQMNSLRAEDTAVYYCARSATWHDTHLDYWGQGTLVTVSS VL: DIQMTQSPSSLSASVGDRVTITCRASQSILSYLNWYQQKPGKAPKLLIYAATSRASGVPSRFSGSGSGTDFTLTISSLQPEDFATYYCQQSYENPLTFGGGTKVEIK
14 | 0.299 | 367_F08 (antibody, V domains shown) VH: EVQLLESGGGLVQPGGSLRLSCAASGFTFSSYGMHWVRQAPGKGLEWVSSINYNSGYTSYADSVKGRFTISRDNSKNTLYLQMNSLRAEDTAVYYCARAATWHDTHLDYWGQGTLVTVSS VL: DIQMTQSPSSLSASVGDRVTITCRASQSILSYVNWYQQKPGKAPKLVIYAATSRASGVPSRFSGSGSGTDFTLTISSLQPEDFATYYCQQSNELPLTFGGGTKVEIK
15 | 0.371 | 365_H04 (antibody, V domains shown) VH: EVQLLESGGGLVQPGGSLRLSCAASGFTFSDYGMNWVRQAPGKGLEWVSGINYNSGYKSYADSVKGRFTISRDNSKNTLYLQMNSLRAEDTAVYYCARSATWHDTHLDYWGQGTLVTVSS VL: DIQMTQSPSSLSASVGDRVTITCRASQSILTYVNWYQQKPGKAPKLVIYAATSRASGVPSRFSGSGSGTDFTLTISSLQPEDFATYYCQQSYESPLTFGGGTKVEIK
16 | 0.274 | 366_C03 (antibody, V domains shown) VH: EVQLLESGGGLVQPGGSLRLSCAASGFTFDSYGMNWVRQAPGKGLEWVSNINYNGGYTGYADSVKGRFTISRDNSKNTLYLQMNSLRAEDTAVYYCARSATWHDTHLDYWGQGTLVTVSS VL: DIQMTQSPSSLSASVGDRVTITCRASQSILSYLNWYQQKPGKAPKLVIYAATSRASGVPSRFSGSGSGTDFTLTISSLQPEDFATYYCQQSYSNPLTFGGGTKVEIK
17 | 0.413 | 371_F12 (antibody, V domains shown) VH: EVQLLESGGGLVQPGGSLRLSCAASGFTFDSYSMNWVRQAPGKGLEWVSNINYNGGYKSYADSVKGRFTISRDNSKNTLYLQMNSLRAEDTAVYYCARSATWHDTHLDYWGQGTLVTVSS VL: DIQMTQSPSSLSASVGDRVTITCRASQSIISYLNWYQQKPGKAPKLLIYAATSRASGVPSRFSGSGSGTDFTLTISSLQPEDFATYYCQQSNNLPLTFGGGTKVEIK
18 | 0.298 | 365_E08 (antibody, V domains shown) VH: EVQLLESGGGLVQPGGSLRLSCAASGFTFDSYSMNWVRQAPGKGLEWVSGINYNSGYTSYADSVKGRFTISRDNSKNTLYLQMNSLRAEDTAVYYCARSATWHDTHLDYWGQGTLVTVSS VL: DIQMTQSPSSLSASVGDRVTITCRASQSIISYVNWYQQKPGKAPKLVIYAATSLASGVPSRFSGSGSGTDFTLTISSLQPEDFATYYCQQSYDLPLTFGGGTKVEIK
19 | 0.175 | 374_G02 (antibody, V domains shown) VH: EVQLLESGGGLVQPGGSLRLSCAASGFTFDSYSMNWVRQAPGKGLEWVSGINYNSGYTSYADSVKGRFTISRDNSKNTLYLQMNSLRAEDTAVYYCARSATWHDTHLDYWGQGTLVTVSS VL: DIQMTQSPSSLSASVGDRVTITCRASQSILTYLNWYQQKPGKAPKLLIYAASSLQSGVPSRFSGSGSGTDFTLTISSLQPEDFATYYCQQSYDTPLTFGGGTKVEIK
20 | 0.16 | 373_D09 (antibody, V domains shown) VH: EVQLLESGGGLVQPGGSLRLSCAASGFTFDSYSMNWVRQAPGKGLEWVSGINYNSGYTSYADSVKGRFTISRDNSKNTLYLQMNSLRAEDTAVYYCARSATWHDTHLDYWGQGTLVTVSS VL: DIQMTQSPSSLSASVGDRVTITCRASQSILTYLNWYQQKPGKAPKLVIYAATSRHSGVPSRFSGSGSGTDFTLTISSLQPEDFATYYCQQSYENPLTFGGGTKVEIK
21 | 0.387 | 371_B10 (antibody, V domains shown) VH: EVQLLESGGGLVQPGGSLRLSCAASGFTFDSYSMNWVRQAPGKGLEWVSNINYNGGYTGYADSVKGRFTISRDNSKNTLYLQMNSLRAEDTAVYYCARSATWHDTHLDYWGQGTLVTVSS VL: DIQMTQSPSSLSASVGDRVTITCRASQSIVSYVNWYQQKPGKAPKLLIYAATSRASGVPSRFSGSGSGTDFTLTISSLQPEDFATYYCQQSYDLPLTFGGGTKVEIK
22 | 0.387 | 369_E04 (antibody, V domains shown) VH: EVQLLESGGGLVQPGGSLRLSCAASGFTFSDYSMNWVRQAPGKGLEWVSGINYNSGYKSYADSVKGRFTISRDNSKNTLYLQMNSLRAEDTAVYYCARSATWHDTHLDYWGQGTLVTVSS VL: DIQMTQSPSSLSASVGDRVTITCRASQSILSYVNWYQQKPGKAPKLVIYAATSRASGVPSRFSGSGSGTDFTLTISSLQPEDFATYYCQQSYSLPLTFGGGTKVEIK
